Source: the nanobody polyreactivity screen of Harvey et al. (2022)

Assay: yeast display, Sf9 membrane polyspecificity reagent, FACS + sequencing; frameworks hold sequencing errors
In short: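 Polyreactivity labels are assigned by the sorting gate from which each nanobody was recovered. The gates were low and high (top ~1%), set on anti-HA fluorescence for expression and streptavidin fluorescence for reagent binding. Before sorting, galactose-induced (36–48 hours) yeast display cells were stained for 1 hour at 4 °C with 10% biotinylated, detergent-solubilized Sf9 membrane reagent.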

| Sequence | polyreactivity (PSR sort gate) |
| --- | --- |
| QVQLVDSGGGLVQAGGSLRLSCAASGSIFPPYAMGWYRQAPGKERELVARISWSTSSTNYADSVKGRFTISRDNAKNTVYLQMNSLKPEVTAVYYCAADYYVFPGYDYWGQGTQVTVSS | high polyreactivity |
| QVQLVDSGGGLVQAGGSLRLSCAASGSIFRPYARGWYRQAPWKERELVASIRWYDGSTYYADSVKGRFTSSRDNAMNTVYLQMNSLKPEDSAVYYCAADYYSQLAGIFDYWGQGTQVTVSS | low polyreactivity |
| QVQLVDSGGGLVQAGGSLRLSCAASGSIFSSYVRGWYRQAPGKERELVAAITSRGGSTYYADSVKGRFTISRDNAKNTVYLQMNSLKPEDTAVYYCAKGGTLGGYWGQGTQVTVSS | high polyreactivity |
| QVQLVDSGGGLVQAGGSLRLSCAASGSIFTAYAMGWYRQAPGKERELVAAITSGGSTNYADSVKGRFTISRDNAKNTVYLQMNSLKPEDTAVYYCNADDYWLDSWSSVLWYDYWGQGTQVTVSS | low polyreactivity |
| QVQLVDSGGGLVQAGGSLRLSCAASGSIFVFYDMGWYSQAPGKEREMVATISSGGGGTYYTDSVKGRFTISRDNAKNTVYLQMNSLKPEDTAVYYCAAEGDKYGKGYGYWGQGTQVTVSS | low polyreactivity |
| QVQLVDSGGGLVQAGGSLRLSCAASGSIFVHYAMGWSRQAPGKEWELVAAITSSGGRTYYADSVKGRFTISRDNAKKTVYLQMNSLKPEDTEVYYCAAKQGRYNIYSNYDYWGQGTQVTVSS | high polyreactivity |
| QVQLVDSGGGLVQAGGSLRLSCAASGSIFYAYAMGWYRQATGKERQLLAVISRGGITNYSDSVKGRFTISRDNAKNTFFLQMNSLNPEDTAVYYCAAATSAWGYLRRYGYWGQGTQVTVSS | low polyreactivity |
| QVQLVDSGGGLVQAGGSLRLSCAASGSIFYNYVMGWCRQAPGKEREMVAAISSGGGTNYADSVKGRFTISRDNAKYTVYLQMNSLKPEDTAVYYCAKASAYGLANDYDYWGQGTQVTVSS | low polyreactivity |
| QVQLVDSGGGLVQAGGSLRLSCAASGSIIKRKAMGWYRQAPGKERELVASISSGGSTHYADSVKGRFTISRDNAKNTVYLQMNSLKPEDTAVYYCAATSIRWSVGSFRRDYWGQGTQVTVSS | low polyreactivity |
| QVQLVDSGGGLVQAGGSLRLSCAASGSISSFYAMGWYRQAPGKERELVAGITSGGSTNYADSVKGRFTISRDNAKNTVYLQMNSLKPEDTAVYYCAAVYKGAGTHFDVFVKEFDYWGQGTQVTVSS | low polyreactivity |
| QVQLVDSGGGLVQAGGSLRLSCAASGSISYYNAMGWYRQAPGKERELVATITDSGGSTYYADSVKGRFTISRDNAKNTVYLQMNSLKPEDTAVYYCAVDYSEWYSIYDYWGQGTQVTVSS | low polyreactivity |
| QVQLVDSGGGLVQAGGSLRLSCAASGSIVYYNDMGWYRQAPGKEREVVATITSGGTTYYADSVKGRFTISRDNAKNSVYVQMNSLKGEDTAVYYCAATSYPGFDDWGQGSQVTVSS | low polyreactivity |
| QVQLVDSGGGLVQAGGSLRLSCAASGSTFALYAMGWYRQAPGKERELVAAITWSGTGTYYADSVKGRFTISRDNAKNTVYLQMNSLKPEDTAVYSCNAEYWWWGLGNDYWGQGTQVTVSS | low polyreactivity |
| QVQLVDSGGGLVQAGGSLRLSCAASGSTFDTNVMGWYRQAPGKERELVAAIDVSGGSTYYADSVKGRFTISRDNAKNTVYLQMNSLKPVDTAVYYCAAEDGQYGMDYWGQGTQVSVSS | low polyreactivity |
| QVQLVDSGGGLVQAGGSLRLSCAASGSTFISYAMGWYRQAPGKERELVAAISRRGDSTYYADSVKGRFTISRDNAKNNVYLEMNSLKPEDTAVYYCAADVSGDKGSIHMNYWGQGTLVTVSS | low polyreactivity |
| QVQLVDSGGGLVQAGGSLRLSCAASGSTFPIYAMEWYRQAPGKERELVAAISSGGSTYYADSVKGRFTISRDNAKNTVYLQMNSLKPEDTAVYYCAADYSQPNFEYYYWGQGTQVTVSS | low polyreactivity |
| QVQLVDSGGGLVQAGGSLRLSCAASGSTFRRNALGWYRQAPGKERELVAAITRSGGRTYYADSVKGRFTISRDNAKNTVYLQMNSLKPEDTAVYYCAARHAPTRYGYWGQGTQVTVSS | high polyreactivity |
| QVQLVDSGGGLVQAGGSLRLSCAASGSTFSHYTMGWYRQAPGKERELVAAINYGGASTYYADSVKGRFTISRDNAKNTVYLQMNSLKPEDTAVYYCAAANRPSEQDNYWGQGTQVTVSS | low polyreactivity |
| QVQLVDSGGGLVQAGGSLRLSCAASGSTFTRNVMGWYRQAPGKERELVASISRSGGRTYYADSVKGRFTISRDNAMNTVYLQMNSMKPDDTAVYYCAAKYFYYLDPYDYWGQGTHVTVSS | high polyreactivity |
| QVQLVDSGGGLVQAGGSLRLSCAASGSTFVKYTMGWYRQAPGKERELVAVISRSGGSTYYADSVKGRFTISRDNAKNTVYLQMNSLKPEDTAVYYCAAHFSRDFDYWGLGTQVTVSS | high polyreactivity |
| QVQLVDSGGGLVQAGGSLRLSCAASGSTFYAYVMGWYRQAPGKERELVAGITWSGGSTYYADSVKGRFTISRDNAKNTVYLQMNSLKPEDTAVYYCAADYYNTYGYDYWGQGTQVTVSS | low polyreactivity |
| QVQLVDSGGGLVQAGGSLRLSCAASGSTFYEYAMGWYRQPPGKERELVAAITSGGSTYYADSVKGRFTISRDNAKNTVYLQMNSLKPEDTAVYYCAADPRIRRGDRSTHGYDYWGQGTQVTVSS | low polyreactivity |

| Sequence | polyreactivity (PSR sort gate) |
| --- | --- |
| QVQLVDSGGGLVQAGGSLRLSCAASGSTFYFKAMGWYRQAPGKEREFVATIRSGGSTYYADSVKGRFTISRDYAKNSVYLQMNSLTPEDTAVYYCAADLVDSYQWSIFLYGYWGQGTQVTVSW | low polyreactivity |
| QVQLVDSGGGLVQAGGSLRLSCAASGSTLAYYTMGWYRQAPGKERELVAAITSGGFTHYADSVKGRFTISRDNAKNTVYLQMNSLKPEDTAVYYCAAKRGPVYYGYYYLGQGTQVTVSS | high polyreactivity |
| QVQLVDSGGGLVQAGGSLRLSCAASGSTVTSYAMGWYRQAPGKERELVAAITYGSGTTYADSVKGRFTISRDNAKNTVYLQMNSLKPEDTAVYYCAADFYYPVLGHGFPTYEYDYWGQGTQVTVSS | low polyreactivity |
| QVQLVDSGGGLVQAGGSLRLSCAASGYTFRYYAMGWYRQEPGKERELVAAITRSGTTYYADSVKGRFTISRDNAKNTVYIQMNSLKTDDTAVYYCNTRVTGNRLGYYYWGQGTQVTVSS | high polyreactivity |
| QVQLVDSGGGLVQAGGSLRLSCADSGSIFSRNTMGWYRQAPGKERELVAGISSSGSRTYYADSVKGRFTISRDNAKNTVYLQMNSLKPEDTAFYYCAAGSQRRYYHTNCDSFNYSGQGTQVTVSS | low polyreactivity |
| QVQLVDSGGGLVQAGGSLRLSCADSGSINGNYVMGWYRQAPRKERELVAAIRWTGGSTYYADTVKGRFTISRDNAKNTVYLQMNSLKPEDTAVYYCNAESTYYPSGEDYWGQGTQVNVSS | high polyreactivity |
| QVQLVDSGGGLVQAGGSLRLSCAGSGLTFRFYAMVWYRQAPGKEREFVAAISSSGTTTYYADSVKGRFTISRDNAKNTVYLQMNSLKPEDTADFYCNKEYTTYGYDLEYDFWGQGTQVTVSS | low polyreactivity |
| QVQLVDSGGGLVQAGGSLRLSCGASGLIFKYNVMGWYRQAPGKERELVAAITWGGTRTYYADSVKGRFTISRDTAKNTVYLQMNSLKPEDTAVYYCAVRSARIERNYWGQGTQVTVSS | low polyreactivity |
| QVQLVDSGGGLVQAGGSLRLSCPASGGIFGEYAMGWYRPAPGKEMELVAAINWSGGSTYYADSVKGRFTISRDNAKNTVYLQMNSLKPEDTAVYYCAADRGYPGNVDYWGQGSQVTVSS | low polyreactivity |
| QVQLVDSGGGLVQAGGSLRLSCPASGSIIPYNALGWYRQAPGKERELVATISSGGSTNYADSVKGRFTISRDNAKNTVYFQMNSLKPEDTAVYYCAADVIVFYYAPNYWGDIEYGYWGQGTQVTVSS | low polyreactivity |
| QVQLVDSGGGLVQAGGSLRLSCPASGSTFLVYAMGWYRQAPGKERELVAVITYSTVRTYYADSVKGRFTISRDNAKNTVYLQMNSLKPEDTAVYHCNADKEFAVLGQGMDFWGQGTQVTVSS | low polyreactivity |
| QVQLVDSGGGLVQAGGSLRLSCSASGIIFRYYTMVWYRQDPGKERELVASISRSGGNTYYADSVKGRFTISRDNAMNTVYLQMNSLKPEDTAVYYCAARRHQKYQESNYWGQGTQVTVSS | high polyreactivity |
| QVQLVDSGGGLVQAGGSLRLSFAASGNIIYQNAMGWDRQAPGKERELVAAISSGGSTNYADSVKGRFTISRDNAKITVYLQMNSLKPEDTAVYYCAAEHWTESVWDDSWGQGTQVTVSS | low polyreactivity |
| QVQLVDSGGGLVQAGGSLRLSSAASGRIFNRYAMGWYRQAPGKERELVAAITRGTRTNYADSVKGRFTISRDNAKNTVYLQMNSLKPEDTAVYYCAAAYGRGSDSDYWGQGTQVTVSS | high polyreactivity |
| QVQLVDSGGGLVQAGGSLRLSSPASGIIFTRYTMGCYSQEPGKERELVAAITTSGGRTYYADSVKGRFTISRDNAKNTVYLPMNSLKPEDTAVYYCDVSGHARYDYWGQGTQVTVSS | high polyreactivity |
| QVQLVDSGGGLVQAGGSLSLICAASGSNFRYYAMGWYRKAPGKERELVDAINWSGGSTYYADSVKGRFTSSRDNAKNTVYLQMNSLKPEHTAVYSCNAVGWRSLHRDYWGQGTQVTLSS | high polyreactivity |
| QVQLVDSGGGLVQAGGSLSLSCAASGRTFVTNAMGWYRQAPGKERELVAAISGNGGSTYYADSVKGRFTISRDNAKNTVYLQMNSLKPEDTAVYYCNKDYHVRYYYWGQGTQVTVSS | low polyreactivity |
| QVQLVDSGGGLVQARVNLRLSCRATGIIFYLYVMGWYRQSPGKDRELVAVISYSGDDTYYADSVQVRFTISRDNAKNTVYLQMISLKPEDTAVYYCADDSIGYGVDYWGQGTQVTVSS | low polyreactivity |
| QVQLVDSGGGLVQAVGSLRLSCAASGRTFRRYAMGWYRQAPGKERELVAAISRSGGSTYYADSVNGRFTISRDNAKNTVYLQMNSLKPEDTAVYYCAAGIWSKLVEPFDYCGQGTQVTVSS | high polyreactivity |
| QVQLVDSGGGLVQAVGSLRLSCAASGRTLGAYAMGWYRQAPGKEREFVARITYGGRTFYADSVKGRFTISRDNAKNTVYLQMNSLKPEDTAVYYCATKLPYRWYDYWGQGTQVTVSS | high polyreactivity |
| QVQLVDSGGGLVQEGGSLRLSCAASGNIFQTYDMGWYRQAHGKEREFVATITSSCARTYYADSVKGRFTISRDNAKNTVYVQMNCLKPEDTAVDYCNRVWSYANGYWGHGTQVTVSS | high polyreactivity |
